Measurements reported in patent US20110177578, “APTAMER AGAINST IL-17 AND USE THEREOF” (The University of Tokyo, published 2011).

Key:
[1] = molecular target: T1, IL-17 (IL-17A) (Homo sapiens, UniProt Q16552 Q16552:24-155); assay: SPR; same as Example 1; conditions: tags: Peprotech; chain copies: 2
T1 sequence: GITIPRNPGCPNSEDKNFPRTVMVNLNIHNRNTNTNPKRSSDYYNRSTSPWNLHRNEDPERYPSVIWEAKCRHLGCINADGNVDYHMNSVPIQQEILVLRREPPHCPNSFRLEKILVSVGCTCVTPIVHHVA

[2] = molecular target: T1, IL-17 (IL-17A); assay: SPR; solution A, tRNA; conditions: tags: Peprotech; chain copies: 2
Experimental: (§1) The binding activities for IL-17 of the nucleic acids shown by SEQ ID NOS:1-6 and 29-36 were evaluated by the surface plasmon resonance method. The measurements were taken using BIAcore 2000. The SA chip was used as the sensor chip, which had streptavidin immobilized thereon. Bound thereto was about 600 RU of a 16-nucleotide Poly dT with biotin bound to the 5′ end thereof. […] 20 μl, of human IL-17 for analyte, prepared at 0.5 was injected, with the addition of 0.1 mg/mL tRNA to lessen nonspecific adsorption. Solution A was used as a running buffer. […] Here, 30N refers to the nucleic acid pool used for the first round of SELEX, comprising a 30-nucleotide random sequence. As an example, a sensorgram showing a status of the binding of the aptamer shown by SEQ ID NO:1 (Apt1) and human IL-17 is shown in FIG. 7. From the above, it was shown that the nucleic acids shown by SEQ ID NOS:1-6 and 29-36 are aptamers that bind to IL-17.

[3] = molecular target: T2, IL-17F (Homo sapiens, UniProt Q96PD4 Q96PD4:31-163); assay: SPR; tRNA added; conditions: tags: R&D Systems 1335-INS/CF; chain copies: 2
T2 sequence: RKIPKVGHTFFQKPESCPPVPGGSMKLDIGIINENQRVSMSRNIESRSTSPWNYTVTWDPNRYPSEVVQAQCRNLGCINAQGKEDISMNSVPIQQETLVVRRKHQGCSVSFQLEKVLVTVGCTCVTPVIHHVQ
Experimental: as §1
Whether the IL-17 aptamers shown by SEQ ID NOS:1-6 and 29-36 bind to IL-17F, which belongs to the same family, was determined by the surface plasmon resonance method. The amino acid sequence homology between IL-17 and IL-17F is 50%. The experiment was performed using IL-17F produced by R&D Company (1335-INS/CF), while in a state wherein tRNA was added to lessen nonspecific adsorption as described above.

[4] = molecular target: T1, IL-17 (IL-17A); assay: SPR; conditions: tags: Peprotech; chain copies: 2
[5] = molecular target: T1, IL-17 (IL-17A); assay: SPR; 3' A16-tailed RNA on dT16 SA chip; solution A pH 7.6, Ca/Mg, 0.1 mg/mL tRNA; conditions: tags: Peprotech; chain copies: 2
Experimental: as §1

GCAGAGGAUAGCGAAGUCAUUGAGCGCCUAUGC (ssRNA, 2'-F pyrimidines) [SEQ 39]: binds [1].

B1: SEQ 4 (ssRNA)
RNA: GGGAGCAGGAGAGAGGUCAGAUGCUAUAGCGAAGUCAUUGAGCGAGACAUAGGCCUAUGCGUGCUAGUGUGA
modifications: 2'-F pyrimidines
B1: binds [2]; no binding [3].

B2: SEQ 29 (ssRNA)
RNA: GGGAGCAGGAGAGAGGUCAGAUGCGAUAGCGAAGUCAUUGAGCGCGUGUCCAACCUAUGCGUGCUAGUGUGA
modifications: 2'-F pyrimidines
B2: binds [2]; no binding [3].

B3: SEQ 3 (ssRNA)
RNA: GGGAGCAGGAGAGAGGUCAGAUGUGUAAGGUCGGAAGUCAUGAACGGCCCGGACCUAUGCGUGCUAGUGUGA
modifications: 2'-F pyrimidines
B3: binds [2]; no binding [3].

GGAUAGCGAAGUCAUUGAGCACC (ssRNA, 2'-F pyrimidines) [SEQ 46]: binds [4].

GGAUAGCGAAGACAUUGAGCGCC (ssRNA, 2'-F pyrimidines; 2'-OMe at a12) [SEQ 48]: binds [4].

GGAUAGCGAAGUCAUUGAGCGCC (ssRNA, 2'-F pyrimidines; 2'-OMe at a3) [SEQ 40-2]: binds [4].

GGAUAGAGAAGUCAUUGAGCGCC (ssRNA, 2'-F pyrimidines; 2'-OMe at a7) [SEQ 47]: binds [4].

B4: SEQ 36 (ssRNA)
RNA: GGGAGCAGGAGAGAGGUCAGAUGUAUAGCGAAGUCAUUGAGCGACAAAGCCGGCCUAUGCGUGCUAGUGUGA
modifications: 2'-F pyrimidines
B4: binds [2]; no binding [3].

B5: SEQ 6 (ssRNA)
RNA: GGGAGCAGGAGAGAGGUCAGAUGGUGAUGCAUAGGAGUGGAGUCAGAUAUAGCCCUAUGCGUGCUAGUGUGA
modifications: 2'-F pyrimidines
B5: binds [2]; no binding [3].

B6: SEQ 37 (ssRNA)
RNA: CAGAUGGGCAGCAGAGGAUAGCGAAGUCAUUGAGCGCCUAUGCGUGCUAGUGUG
modifications: 2'-F pyrimidines
B6: binds [1].

B7: SEQ 33 (ssRNA)
RNA: GGGAGCAGGAGAGAGGUCAGAUGGAGGAGCCAGUGAUCGUUGACCUCAAUGCACCUAUGCGUGCUAGUGUGA
modifications: 2'-F pyrimidines
B7: binds [2]; no binding [3].

B8: SEQ 34 (ssRNA)
RNA: GGGAGCAGGAGAGAGGUCAGAUGGAGGAGACAGUGAUCGUUGACCCACCGGGUCCUAUGCGUGCUAGUGUGA
modifications: 2'-F pyrimidines
B8: binds [2]; no binding [3].

B9: SEQ 35 (ssRNA)
RNA: GGGAGCAGGAGAGAGGUCAGAUGGAGGAGGCAGUAAUCGUUGACUGGUAAACCCCUAUGCGUGCUAGUGUGA
modifications: 2'-F pyrimidines
B9: binds [2]; no binding [3].

GGAUAGCGAAGUCAUUGAGCGCC (ssRNA, 2'-F pyrimidines) [SEQ 40]: binds [1].

GGGGAUAGCGAAGUCAUUGAGCGCCCC (ssRNA, 2'-F pyrimidines) [SEQ 41]: binds [1].

GGUCUAGCCGGAGGAGUCAGUAAUCGGUAGACC (ssRNA, 2'-F pyrimidines) [SEQ 44]: binds [1].

B10: SEQ 30 (ssRNA)
RNA: GGGAGCAGGAGAGAGGUCAGAUGGUCUAGCCGGAGGAGUCAGUAAUCGGUAGACCUAUGCGUGCUAGUGUGA
modifications: 2'-F pyrimidines
B10: binds [2]; no binding [3].

GUGCACAUGGGAUAGCGAAGUCAUUGAGCGCCUAUGCGUGC (ssRNA, 2'-F pyrimidines) [SEQ 42]: binds [1].

B11: SEQ 1 (Apt1) (ssRNA)
RNA: GGGAGCAGGAGAGAGGUCAGAUGGGCAGCAGAGGAUAGCGAAGUCAUUGAGCGCCUAUGCGUGCUAGUGUGA
modifications: 2'-F pyrimidines
B11: binds [5]; no binding [3].

B12: SEQ 2 (ssRNA)
RNA: GGGAGCAGGAGAGAGGUCAGAUGGUGCACAUGGGAUAGCGAAGUCAUUGAGCGCCUAUGCGUGCUAGUGUGA
modifications: 2'-F pyrimidines
B12: binds [2]; no binding [3].

B13: SEQ 32 (ssRNA)
RNA: GGGAGCAGGAGAGAGGUCAGAUGGGCAGCGGAGGAUGGCGAAGUCAUUGGGCGCCUAUGCGUGCUGGUGGAG
modifications: 2'-F pyrimidines
B13: binds [2]; no binding [3].

B14: SEQ 5 (ssRNA)
RNA: GGGAGCAGGAGAGAGGUCAGAUGAGCGCCAUAGGGUAGAGAAGCCAUUGAUCACCUAUGCGUGCUAGUGUGA
modifications: 2'-F pyrimidines
B14: binds [2]; no binding [3].

B15: SEQ 31 (ssRNA)
RNA: GGGAGCAGGAGAGAGGUCAGAUGGAAGUGGAGUCAGAUAUAGCAAUAUUAUGACCUAUGCGUGCUAGUGUGA
modifications: 2'-F pyrimidines
B15: binds [2]; no binding [3].

GCAGCAGAGGAUAGCGAAGUCAUUGAGCGCCUAUGCGUGC (ssRNA, 2'-F pyrimidines) [SEQ 38]: binds [1].

GGAUAGCGAAGUCAUCGAGCGCC (ssRNA, 2'-F pyrimidines) [SEQ 45]: binds [4].

GGAUAGCGAAGUCAUUGAGCGCC (ssRNA, 2'-F pyrimidines except c7; 2'-OMe at c7) [SEQ 40-3]: binds [4].

GGAUAGCGAAGUCAUUGAGCGCC (ssRNA, 2'-F pyrimidines; 2'-OMe at g19) [SEQ 40-4]: binds [4].

B16: SEQ 43 (ssRNA)
RNA: AGAGGUCAGAUGGUCUAGCCGGAGGAGUCAGUAAUCGGUAGACCUAUGCGUG
modifications: 2'-F pyrimidines
B16: binds [1].
